B1: single domain antibody AHP15662 (Fc fusion)
chain: EVQLVESGGGLVQPGGTLRLSCAASGSISRFYAVGWYRQAPGKQRELVARISSGGSTYYADSVKGRFTISINNSKNTVYLQMNNLKPEDTAVYYCNARNLWGQGTQVTVSS
notes: VHH expressed from pcDNA3.4-Fc (HuIgG1); also called AHP15662-VHH; not shown: human IgG1 Fc of the pcDNA3.4-Fc (HuIgG1) expression vector
B2: humanized single domain antibody AHP15662-VHH4 (Fc fusion)
chain: B1 chain with T17S, N72D, V78L, N84S, K86R, P87A, Q106L
notes: Humanized VHH expressed from pcDNA3.4-Fc (Human IgG1); not shown: human IgG1 Fc of the pcDNA3.4-Fc (Human IgG1) expression vector
B3: humanized single domain antibody AHP15773-VHH4 (Fc fusion)
chain: EVQLVESGGGLVQPGGSLRLSCAASGSDFSDSAMGWYRQAPGKQREFVAAIGAGGITTYADSVKGRFTISRDNAKNTLYLQMNSLRAEDTAVYFCNFAPGWYPPGYQYWGQGTLVTVSS
notes: as for B2
B4: single domain antibody AHP15485 (Fc fusion)
chain: EVQLVESGGGLAQAGGSLSLSCTASGRSFSNFQMGWFRQAPGKEREFVAASGWSGGPTYYADSVKGRFTISTDDSKKTMYLQMNSLKPEDTAAYYCYEDRVLSGRPVRYWGRGTQVTVSS
notes: Alpaca VHH expressed from pcDNA3.4-Fc (HuIgG1) in HEK293-6E; also called AHP15485-VHH; not shown: human IgG1 Fc of the pcDNA3.4-Fc (HuIgG1) expression vector
B5: humanized single domain antibody AHP15485-VHH4 (Fc fusion)
chain: EVQLVESGGGLVQPGGSLRLSCAASGRSFSNFQMGWFRQAPGKEREFVAASGWSGGPTYYADSVKGRFTISTDNSKNTLYLQMNSLRAEDTAVYYCYEDRVLSGRPVRYWGQGTLVTVSS
notes: as for B2
B6: single domain antibody AHP15776 (Fc fusion)
chain: QVQLVESGGGLVQPGGSLTLSCAASQSISSIYLLGWYRQAPGKERESVARITTSGTTTYIADSVKGRFTLSRDNAKNTMYLQMNSLKPEDTAVYYCNVPFLVATARGNAYWGQGTQVTVSS
notes: VHH expressed from pcDNA3.4-Fc (HuIgG1); not shown: human IgG1 Fc of the pcDNA3.4-Fc (HuIgG1) expression vector
B7: single domain antibody AHF21719 (Fc fusion)
chain: B1 chain with T17S, S27Y, V34M, S56W, N72D, V78L, N84S, K86R, P87A, Q106L
notes: Fc format is inferred; not shown: human IgG1 Fc; vector and li
B8: single domain antibody AHF21711 (Fc fusion)
chain: EVQLVESGGGLVQPGGSLRLSCAASHSISRFYAIGWYRQAPGKQRELVARISSMGRTYYADSVKGRFTISIDNSKNTLYLQMNSLRAEDTAVYYCNARNLWGQGTLVTVSS
notes: as for B7
B9: single domain antibody AHP15662-VHH4-Variant2 (Fc fusion)
chain: B8 chain with H26Y, S27F, I34V, M54G, R56W
notes: as for B7
B10: single domain antibody AHF21720 (Fc fusion)
chain: B8 chain with H26G, S27Y, I34M, M54L, R56W
notes: as for B7
B11: single domain antibody AHP15662-VHH4-Variant1 (Fc fusion)
chain: B8 chain with H26Y, S27Y, I34V, M54G, R56W
notes: as for B7
B12: single domain antibody AHF21721 (Fc fusion)
chain: B8 chain with H26G, S27F, I34M, R56W
notes: as for B7
B13: single domain antibody AHP15662-VHH4-Variant3 (Fc fusion)
chain: B8 chain with S27Y, I34V, M54G, R56W
notes: as for B7
B14: single domain antibody AHP15485-VHH4-Variant2 (Fc fusion)
chain: B5 chain with N31S, A61W, K65I
notes: as for B7
B15: single domain antibody AHF22018 (Fc fusion)
chain: B5 chain with N31S, A61W, V64W, P106W
notes: not shown: human IgG1 Fc; vector and li
B16: single domain antibody AHF22013 (Fc fusion)
chain: B5 chain with N31S, A61W, K65I, P106H
notes: as for B7
B17: single domain antibody AHP15485-VHH4-Variant1 (Fc fusion)
chain: B5 chain with A61W, K65I
notes: as for B7

Substitutions are numbered along the chain they refer to.

T2 sequence (Q01973 30-403 limits assumed): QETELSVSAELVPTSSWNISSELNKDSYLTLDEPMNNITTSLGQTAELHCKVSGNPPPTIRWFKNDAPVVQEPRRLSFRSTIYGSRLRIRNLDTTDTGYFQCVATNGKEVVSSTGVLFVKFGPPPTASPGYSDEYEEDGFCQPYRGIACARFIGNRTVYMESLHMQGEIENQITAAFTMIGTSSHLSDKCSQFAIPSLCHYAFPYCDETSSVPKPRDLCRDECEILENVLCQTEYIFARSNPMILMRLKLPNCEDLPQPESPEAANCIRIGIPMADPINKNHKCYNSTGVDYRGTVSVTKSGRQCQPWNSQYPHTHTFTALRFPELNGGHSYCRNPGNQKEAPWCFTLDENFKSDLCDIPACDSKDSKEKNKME

The target of one experiment is T1, human ROR1 Frizzled-His domain protein (amino acid sequence at positions 165-305, Acrobiosystems, RO1-H5222) (human, UniProt Q01973 165-305).
T1 construct: also called Human ROR1 Frizzled-His protein; not shown: His tag
T1 sequence (Q01973 165-305 limits assumed, form in doubt): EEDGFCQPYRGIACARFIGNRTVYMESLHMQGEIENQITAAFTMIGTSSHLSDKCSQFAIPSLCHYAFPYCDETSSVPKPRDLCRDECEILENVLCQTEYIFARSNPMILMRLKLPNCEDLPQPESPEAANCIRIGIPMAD
The experiment is described as follows: SPR Biacore T200, antibody Fc-captured, antigen as analyte. The protocol:
(§1) The affinity of purified antibodies for human ROR1-related proteins was determined separately using the surface plasmon resonance (SPR) biosensor Biacore T200 (GE Healthcare). The antibodies were immobilized on the sensor chip by the Fc capture method. Human ROR1-related proteins were used as analytes. Data for dissociation (kd) and association (ka) rate constants were obtained using the Biacore T200 evaluation software. The equilibrium dissociation constant (KD) was calculated from the ratio of kd to ka.
On the technique in general: In SPR one partner is held on a chip, and binding of the other changes the refractive index at the surface.
In turn, B1 had a Kd of 550 nM, a koff of 0.19 s⁻¹ and a kon of 345000 M⁻¹ s⁻¹.

Take B2: the Kd turned out to be 247 nM, the koff was 0.111 s⁻¹ and the kon is 449000 M⁻¹ s⁻¹.

The next experiment has as its target T2, human ROR1-His protein (fused with a His protein tag, Acrobiosystems, RO1-H522y) (human, UniProt Q01973 30-403).
T2 construct: also called recombinant human ROR1-His protein; not shown: His tag
Described as above. As for the experimental part:
as §1
For the molecule B3, binding was put at a Kd of 319 nM, the koff was 0.0587 s⁻¹ and the kon is 184000 M⁻¹ s⁻¹.

Molecule B4 displayed a Kd of 280 nM, a koff of 0.063 s⁻¹ and an on-rate (kon) of 225000 M⁻¹ s⁻¹.

B5: the Kd came out at 320 nM, the koff was 0.0686 s⁻¹ and the kon worked out at 214000 M⁻¹ s⁻¹.

The target of the next experiment is T3, mouse ROR1 expressed on CHO cells (CHO-K1/Mouse ROR1 stable cells) (mouse, UniProt Q9Z139 30-937).
T3 construct: whole, on cells
T3 sequence (Q9Z139 30-937): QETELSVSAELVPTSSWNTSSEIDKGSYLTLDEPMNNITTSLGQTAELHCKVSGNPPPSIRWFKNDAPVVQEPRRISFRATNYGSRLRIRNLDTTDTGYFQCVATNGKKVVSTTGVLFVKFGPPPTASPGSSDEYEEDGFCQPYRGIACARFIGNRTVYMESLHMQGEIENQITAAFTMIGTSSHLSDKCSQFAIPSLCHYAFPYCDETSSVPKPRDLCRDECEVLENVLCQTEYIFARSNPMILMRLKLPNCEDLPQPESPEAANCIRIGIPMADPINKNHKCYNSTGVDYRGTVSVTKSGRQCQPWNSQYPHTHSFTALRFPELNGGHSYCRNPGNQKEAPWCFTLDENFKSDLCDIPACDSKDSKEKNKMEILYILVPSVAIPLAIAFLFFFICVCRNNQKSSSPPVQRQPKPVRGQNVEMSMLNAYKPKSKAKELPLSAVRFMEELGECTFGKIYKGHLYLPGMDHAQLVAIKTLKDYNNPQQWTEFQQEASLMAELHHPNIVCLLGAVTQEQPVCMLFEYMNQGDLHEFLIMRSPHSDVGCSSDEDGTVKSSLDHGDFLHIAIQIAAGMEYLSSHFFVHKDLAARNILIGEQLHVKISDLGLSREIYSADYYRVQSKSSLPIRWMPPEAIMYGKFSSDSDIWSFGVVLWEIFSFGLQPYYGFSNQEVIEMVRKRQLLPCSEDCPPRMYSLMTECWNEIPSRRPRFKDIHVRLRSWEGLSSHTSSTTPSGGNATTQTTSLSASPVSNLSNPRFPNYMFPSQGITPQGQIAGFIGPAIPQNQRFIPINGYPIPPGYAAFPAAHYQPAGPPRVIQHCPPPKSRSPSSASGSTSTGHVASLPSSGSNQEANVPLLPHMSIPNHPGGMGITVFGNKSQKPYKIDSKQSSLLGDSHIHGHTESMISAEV
As to the kind of experiment: flow cytometry, antibody at 10 ug/ml on CHO cells. As for the experimental part:
(§2) CHO cells expressing human and mouse ROR1 and parental cells as the negative control for detection were collected and washed 3 times with PBS. 2.5×10⁵ test cells and 100 μl of purified antibody at 10 μg/ml were added to a 96-well plate, and the plate was incubated at 4° C. for 1 hour. The cells were then washed 3 times with PBS, 100 μl of iFluor-labeled goat anti-human IgG, an Fcγ-specific fragment antibody, was added, and the plate was incubated at 4° C. for 45 minutes. Finally, the cells were washed 3 times with PBS, and the signals were read using FACS BD Calibur.
A general note: A flow cytometer gives signals particle by particle.
With B6, the binding result is reported as “binds”.

The next experiment addresses T1, human ROR1 Frizzled-His domain protein …. As to the kind of experiment: indirect ELISA, antigen coated at 1 ug/ml. The protocol: (§3) Indirect ELISA was used to assess the binding capability of the above purified antibodies to human ROR1-related recombinant proteins. ELISA plates (Nunc) were coated with 1 μg/ml of human ROR1-His protein, human ROR1 Frizzled-His domain protein, and human ROR1 Kringle-His domain protein in 100 μl/well of CBS overnight at 4° C. The plates were washed with PBS-T (0.05% Tween) and blocked with 300 μl/well of PBS containing 3% skim milk at 37° C. for 1 hour. Subsequently, the blocking solution was discarded, and 100 μl of purified antibody at 8 μg/ml (about 100 nM) was added to the first well and diluted according to a 3-fold gradient to obtain a total of 11 test concentration gradients. The plates were then incubated for 1 hour at room temperature. The plates were washed 3 times with PBST and incubated with 100 μl/well of horseradish peroxidase-conjugated mouse anti-human IgG Fc fragment (GenScript) for 0.5 hours at 37° C. The plates were washed five times with PBST, a TMB chromogenic solution (GenScript) was then added, and the plates were incubated for 15 minutes at room temperature in the dark. The reaction was stopped by adding 50 μl of 1 M HCl stop solution (Sigma). The plates were read at 450 nm using a microplate reader. FIGS. 1-3 show the results of the ELISA experiment on the binding of 8 positive recombinant antibody clones to ROR1-related antigen proteins, and the EC₅₀ for each antibody is as shown in Table 2 below: the antigen binding capacity of the antibodies tested was all equal to or higher than that of the positive reference antibody R11-scFv.
As for B6, the half-maximal effective concentration (EC50) was 0.023 µg/mL.

For B1, the EC50 came out at 0.0105 µg/mL. Against the preceding molecule, the EC50 is about 2.2-fold lower.

In a further experiment the target is T2, human ROR1-His protein (fused with a …). As to the kind of experiment: indirect ELISA, antigen coated at 1 ug/ml. The protocol:
as §3
Molecule B6 returned an EC50 of 0.0109 µg/mL.

As to B4, the EC50 is 0.0061 µg/mL.

The molecule B1 had an EC50 of 0.0105 µg/mL.

The target of a further experiment is T1, human ROR1 Frizzled-His domain protein …. As to the kind of experiment: SPR Biacore T200, method as Example 6 (antibody Fc-captured, antigen as analyte). As for the experimental part:
as §1
(§4) According to the mutation status of the improved clones in the precise saturation mutation library, the combinatorial mutations and the relevant primers for library construction for the second round were designed. The combinatorial mutation library construction was performed still using the prokaryotic soluble expression plasmid of the humanized single domain antibody as the template. The subsequent screening process was the same as that for the precise saturation mutation library. Finally, the top 5 or 7 clones ranked by the improvement fold in affinity were selected for recombinant verification. 5 clones with improved affinity (AHF22016, AHF22018, AHF22013, AHP15485-VHH4-Variant1, and AHP15485-VHH4-Variant2) were obtained from the humanized antibody AHP15485 through affinity maturation screening, and were subjected to eukaryotic expression and purification, as well as subsequent affinity detection at various concentrations. 7 clones (AHP15662-VHH4-Variant1, AHP15662-VHH4-Variant2, AHP15662-VHH4-Variant3, AHF21711, AHF21719, AHF21720, and AHF21721) were obtained from AHP15662-VHH4.
As for B7, the Kd was 21.6 nM, the koff is 0.00169 s⁻¹ and the kon stood at 78100 M⁻¹ s⁻¹.

B8: the Kd was determined as 19.3 nM, the koff is 0.00174 s⁻¹ and the kon was found to be 90100 M⁻¹ s⁻¹.

B9: binding was put at a Kd of 75.3 nM, the koff was determined as 0.0119 s⁻¹ and the kon worked out at 159000 M⁻¹ s⁻¹.

B10: the Kd came out at 16.9 nM, the koff turned out to be 0.00124 s⁻¹ and the kon was determined as 73600 M⁻¹ s⁻¹.

Molecule B11 had a Kd of 46.3 nM, a koff of 0.00701 s⁻¹ and a kon of 151000 M⁻¹ s⁻¹.

For B12, the Kd is 15.6 nM, the koff amounted to 0.00113 s⁻¹ and the kon is 72500 M⁻¹ s⁻¹.

As to B13, the Kd was 39.5 nM, the koff worked out at 0.0062 s⁻¹ and the kon was determined as 157000 M⁻¹ s⁻¹.

The molecule B2 registered a Kd of 294 nM, an off-rate (koff) of 0.103 s⁻¹ and a kon of 350000 M⁻¹ s⁻¹.

The next experiment addresses T2, human ROR1-His protein (fused with a …). The experiment is described as above. As for the experimental part: as §1, §4
Molecule B14 registered a Kd of 21.4 nM, a koff of 0.0018 s⁻¹ and a kon of 84000 M⁻¹ s⁻¹.

In turn, B15 came in with a Kd of 20.3 nM, a koff of 0.000884 s⁻¹ and an on-rate constant (kon) of 43500 M⁻¹ s⁻¹.

Turning to B5, the affinity, expressed as Kd, was 290 nM; the koff was determined as 0.0547 s⁻¹; the kon was 189000 M⁻¹ s⁻¹.

Regarding B16, the Kd stood at 8.91 nM, the koff was found to be 0.000374 s⁻¹ and the kon was determined as 42000 M⁻¹ s⁻¹.

Regarding B17, the Kd turned out to be 184 nM, the koff is 0.0153 s⁻¹ and the kon was found to be 83100 M⁻¹ s⁻¹.

For the next experiment, the target named is T4, human ROR1 expressed on CHO cells (CHO-K1/Human ROR1 stable cells) (human, UniProt Q01973 30-937).
T4 construct: whole, on cells; also called CHO-K1/ROR1/Luc (Nanjing Probio, Cat #RD00949)
T4 sequence (Q01973 30-937): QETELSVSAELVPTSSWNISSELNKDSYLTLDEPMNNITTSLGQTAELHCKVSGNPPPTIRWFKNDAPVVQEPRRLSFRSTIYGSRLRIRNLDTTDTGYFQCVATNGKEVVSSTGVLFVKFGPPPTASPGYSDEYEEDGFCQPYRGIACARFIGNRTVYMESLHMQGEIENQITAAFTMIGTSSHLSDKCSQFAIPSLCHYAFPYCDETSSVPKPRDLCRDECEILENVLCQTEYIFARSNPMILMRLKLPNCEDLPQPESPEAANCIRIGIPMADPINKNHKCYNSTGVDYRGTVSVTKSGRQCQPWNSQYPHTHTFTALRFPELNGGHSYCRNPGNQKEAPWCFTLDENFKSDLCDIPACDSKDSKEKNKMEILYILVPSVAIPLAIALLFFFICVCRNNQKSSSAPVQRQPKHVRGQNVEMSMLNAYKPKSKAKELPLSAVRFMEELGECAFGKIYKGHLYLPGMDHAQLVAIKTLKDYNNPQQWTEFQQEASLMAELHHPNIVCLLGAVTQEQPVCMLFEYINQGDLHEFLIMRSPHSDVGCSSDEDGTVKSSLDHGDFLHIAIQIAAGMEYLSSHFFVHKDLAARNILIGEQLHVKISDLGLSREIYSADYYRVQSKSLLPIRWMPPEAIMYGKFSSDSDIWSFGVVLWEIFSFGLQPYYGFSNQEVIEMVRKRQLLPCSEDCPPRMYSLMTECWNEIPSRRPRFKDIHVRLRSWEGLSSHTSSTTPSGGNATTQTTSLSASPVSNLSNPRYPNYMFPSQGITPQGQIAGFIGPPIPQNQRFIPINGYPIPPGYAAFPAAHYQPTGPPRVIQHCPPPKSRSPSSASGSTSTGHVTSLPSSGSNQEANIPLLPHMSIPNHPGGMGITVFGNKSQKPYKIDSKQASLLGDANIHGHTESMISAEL
The experiment is described as follows: flow cytometry, 10 ug/ml antibody on Human ROR1-CHO-K1 cells (curve 1), fluorescent secondary antibody. As for the experimental part:
as §2
For the molecule B3, the “Geometric Mean : Alexa Fluor 647-H” value came to 28700.

As for B4, the “Geometric Mean : Alexa Fluor 647-H” value was determined as 61400.

Turning to B5, the “Geometric Mean : Alexa Fluor 647-H” value was determined as 38500.

Turning to B1, the “Geometric Mean : Alexa Fluor 647-H” value was 56400.

As to B2, the “Geometric Mean : Alexa Fluor 647-H” value came out at 55400.

A further experiment has as its target T3, mouse ROR1 expressed on CHO cells …. The experiment is described as follows: flow cytometry, 10 ug/ml antibody on Mouse ROR1-CHO-K1 cells (curve 2), fluorescent secondary antibody. As for the experimental part:
as §2
Take B3: the “Geometric Mean : Alexa Fluor 647-H” value is 48500.

As for B4, the “Geometric Mean : Alexa Fluor 647-H” value was 31400.

For B5, the “Geometric Mean : Alexa Fluor 647-H” value is 8630.

In the case of B1, the “Geometric Mean : Alexa Fluor 647-H” value was 75600.

B2: the “Geometric Mean : Alexa Fluor 647-H” value came to 52800.

The Kd is the equilibrium constant for the complex coming apart. What is called koff is a measure of how fast the partners let go of each other. Read a low koff as slow dissociation. In general, kon refers to the rate constant with which the complex forms. A high value points to faster complex formation. One may read the EC50 as the concentration needed to bring the measured effect to its halfway point.

The record behind these values is patent US20260158064A1 (NANJING PROBIO BIOTECH, published 2026).
